Data reported in patent US20170258870A1.
The star is where a group is joined. Biotin = O=C1N[C@H]2[C@H](CS[C@H]2CCCCC(=O)*)N1; Ttds = NCCCOCCOCCOCCCNC(=O)CCC(=O)*

B1: Helix 5 peptide (LIMP-2-derived, L152-E175) (peptide)
peptide: {Biotin-Ttds}-LREIIEAMLKAYQQKLFVTHTVDE-OH
B2: 3xD Helix 5 peptide (peptide)
peptide: {Biotin-Ttds}-LREDDEAMDKAYQQKLFVTHTVDE-OH

Target: recombinant GC (Cerezyme, Genzyme Therapeutics) (UniProt P04062)
Test: cell-based or functional assay

| Binder | GC enzyme activity [times] | half-life of GC activity at 37° C. (stabilization assay) [h] |
| --- | --- | --- |
| B1 | 5 | 48 |
| B2 |  | 24 |
